These results are taken from paper PMC4452782.

Assay [1] concerns the target GEC1/GABARAPL1 (GL1) (human (endogenous in MDA-MB-436 and MCF-7)) (UniProt Q9H0R8). In words: proximity ligation; P-LISA (Duolink In Situ Detection Reagents Red) on MDA-MB-436 cells fixed with 4% paraformaldehyde and permeabilised with cold methanol; endogenous proteins; mouse anti-SQSTM1 or anti-NIX with rabbit anti-LC3B or anti-GL1; dots per cell counted with BlobFinder; untreated cells, also after Rapa (10 uM, 5 h), Rot (50 uM, 24 h) or CCCP (100 uM, 24 h).

Assay [2] deals with LC3B (human (endogenous in MDA-MB-436)) (UniProt Q9GZQ8). Described as above.

Chain of NIX/BNIP3L, O60238 1-219 (natural protein; other documents disagree on this pair) (O60238 whole entry): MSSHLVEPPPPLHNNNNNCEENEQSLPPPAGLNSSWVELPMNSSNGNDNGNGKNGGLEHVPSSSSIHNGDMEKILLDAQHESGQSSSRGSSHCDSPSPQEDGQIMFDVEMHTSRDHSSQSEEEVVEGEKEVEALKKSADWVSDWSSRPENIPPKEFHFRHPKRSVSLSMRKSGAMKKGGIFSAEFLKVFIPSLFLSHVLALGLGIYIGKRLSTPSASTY
Chain of GEC1/GABARAPL1 (GL1) (human (endogenous in MDA-MB-436 and MCF-7)) (Q9H0R8 whole entry): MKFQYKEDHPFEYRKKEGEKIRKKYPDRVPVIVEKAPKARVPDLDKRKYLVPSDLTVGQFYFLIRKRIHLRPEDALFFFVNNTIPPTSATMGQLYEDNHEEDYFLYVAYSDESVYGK

“NIX/BNIP3L, O60238 1-219 (natural protein; other documents disagree on this pair)”: the P-LISA dots per cell in assay [1] is 11.6 dots/cell; in assay [2] it was 18.9 dots/cell.
